Measured values published in paper PMC8480326, “Chemoenzymatic glycan-selective remodeling of a therapeutic lysosomal enzyme with high-affinity M6P-glycan ligands. Enzyme substrate specificity is the name of the game” (Chemical Science, 2021).

Test: observation during stepwise remodeling
Details: glycan lost; control: commercial rhGAA

recombinant human acid α-glucosidase (rhGAA, Lumizyme): Endo-F3 deglycosylation
stability_or_folding: decreases
